Source: publication PMC7411133, “Phosphorylations of the Abutilon Mosaic Virus Movement Protein Affect Its Self-Interaction, Symptom Development, Viral DNA Accumulation, and Host Range” (Frontiers in Plant Science, 2020)
“Also recorded” adds a separate entry of the source.

Key:
[1] = target: AbMV movement protein (MP; BC1) (UniProt P21946); test: acceptor photobleaching FRET, tag layout NC; conditions: sites T221,S223,S250
[2] = target: the molecule itself; test: FRET or BRET; acceptor photobleaching FRET in living N. benthamiana leaf epidermal cells, 3 dpai; acceptor mVenus, donor mTurquoise2; four layouts (NN, NC, CN, CC); without and with local AbMV (DNA-A + DNA-BΔMP) infection; ROIs along the plasma membrane; p19 co-infiltrated

Row | Molecule | other: mean FRET efficiency ([1]; reference: MPWT with MPWT) | other: mean FRET efficiency ([1]; reference: MPAAA with MPAAA) | mean FRET efficiency (layout NC, with AbMV) [2] [%] | mean FRET efficiency (layout NC, without AbMV) [2] [%]
1 | AbMV movement protein (MP; BC1) (from UniProt P21946) MPAAA with MPAAA | stronger; reference 36; also recorded: stronger; reference 28 | – | – | –
2 | AbMV movement protein (MP; BC1) (from UniProt P21946) MPDDD with MPDDD | same; reference 28 | weaker; reference 50; also recorded: weaker; reference 42 | – | –
3 | AbMV movement protein, full-length, T221A/S223A/S250A (MP^AAA), fused to mVenus or mTurquoise2 (natural protein, Abutilon mosaic virus, UniProt P21946 1-293, looked up, Movement protein (MP; BC1) of Abutilon mosaic virus, full-length; Two copies expressed from one T-DNA (pFRETtv-2-in-1), one with mVenus and one with mTurquoise2, in four layouts (NN, NC, CN, CC); each copy carries one fluorescent protein at one end; also called mVenus::MP^AAA; MP^AAA::mVenus; source: N. benthamiana leaf epidermis, transiently expressed after agro-infiltration, in living cells; …) MDSQLVNPPNAFNYIESHRDEYQLSHDLTEIILQFPSTAAQLTARLSRSCMKIDHCVIEYRQQVPINATGSVIVEIHDKRMTDNESLQASWTFPIRCNIDLHYFSASFFSLKDPIPWKLYYKVCDTNVHQRTHFAKFKGKLKLSTAKHSVDIPFRAPTVRILSKQFSEKDVDFSHVDYGKWERKPIRCASMSRIGLRGPIEIRPGESWASRSTIGTAQPDADAEMENELHPYRHLNRLGTSLLDPGESAAIVGDQRAEPNITMSMGQLNELVRTAVQECVNSNCQASQAKSLK | – | – | 42 | 50
4 | AbMV movement protein, full-length, T221D/S223D/S250D (MP^DDD), fused to mVenus or mTurquoise2 (natural protein, Abutilon mosaic virus, UniProt P21946 1-293, looked up, Movement protein (MP; BC1) of Abutilon mosaic virus, full-length; Two copies expressed from one T-DNA (pFRETtv-2-in-1), one with mVenus and one with mTurquoise2, in four layouts (NN, NC, CN, CC); each copy carries one fluorescent protein at one end; also called mVenus::MP^DDD; MP^DDD::mVenus; source: N. benthamiana leaf epidermis, transiently expressed after agro-infiltration, in living cells; …) MDSQLVNPPNAFNYIESHRDEYQLSHDLTEIILQFPSTAAQLTARLSRSCMKIDHCVIEYRQQVPINATGSVIVEIHDKRMTDNESLQASWTFPIRCNIDLHYFSASFFSLKDPIPWKLYYKVCDTNVHQRTHFAKFKGKLKLSTAKHSVDIPFRAPTVRILSKQFSEKDVDFSHVDYGKWERKPIRCASMSRIGLRGPIEIRPGESWASRSTIGTAQPDDDDEMENELHPYRHLNRLGTSLLDPGESADIVGDQRAEPNITMSMGQLNELVRTAVQECVNSNCQASQAKSLK | – | – | 30 | 14
5 | AbMV movement protein, full-length, wild type (MP^WT), fused to mVenus or mTurquoise2 (natural protein, Movement protein (MP; BC1) of Abutilon mosaic virus, full-length; Two copies expressed from one T-DNA (pFRETtv-2-in-1), one with mVenus and one with mTurquoise2, in four layouts (NN, NC, CN, CC); each copy carries one fluorescent protein at one end; also called BC1; mVenus::MP^WT; source: N. benthamiana leaf epidermis, transiently expressed after agro-infiltration, in living cells; not shown: …) MDSQLVNPPNAFNYIESHRDEYQLSHDLTEIILQFPSTAAQLTARLSRSCMKIDHCVIEYRQQVPINATGSVIVEIHDKRMTDNESLQASWTFPIRCNIDLHYFSASFFSLKDPIPWKLYYKVCDTNVHQRTHFAKFKGKLKLSTAKHSVDIPFRAPTVRILSKQFSEKDVDFSHVDYGKWERKPIRCASMSRIGLRGPIEIRPGESWASRSTIGTAQPDTDSEMENELHPYRHLNRLGTSLLDPGESASIVGDQRAEPNITMSMGQLNELVRTAVQECVNSNCQASQAKSLK | – | – | 28 | 36
